The text below walks through data of patent US20160030544A1.

By pKd is commonly meant the Kd on a negative log10 scale, so that one unit is a factor of ten.

The target of the experiment is fH6-7 (factor H CCP domains 6-7) (UniProt P08603). Nature of the experiment: SPR, Biacore 3000, protein on CM5 chip, fH6-7 as analyte. For orientation: Surface plasmon resonance follows binding to a sensor surface in real time, without labels.

pKd: −log10 of the molar value.

fH6-7 (factor H CCP domains 6-7), sequence (P08603 321-443 limits assumed): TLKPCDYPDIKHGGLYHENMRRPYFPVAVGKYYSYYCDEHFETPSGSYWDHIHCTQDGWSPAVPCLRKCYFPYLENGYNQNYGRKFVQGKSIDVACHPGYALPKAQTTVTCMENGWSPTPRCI

In turn, “V3.45 fHbp (variant 3 factor H binding protein of N. meningitidis), recombinant wild type” had a pKd of 9.00.
